B1: Fab D5 (Fab, V domains shown)
VH: QVQLVQSGAEVRKPGASVKVSCKASGDTFSSYAISWVRQAPGQGLEWMGGIIPIFGTANYAQAFQGRVTITANESTSTAYMELSSLRSEDTAIYYCARDNPTLLGSDYWGAGTLVTVSS
VL: DIQMTQSPSTLSASIGDRVTITCRASEGIYHWLAWYQQKPGKAPKLLIYKASSLASGAPSRFSGSGSGTDFTLTISSLQPDDFATYYCQQYSNYPLTFGGGTKLEIK
notes: also called D5 (Fab format); D5 antibody; source: provided by Joseph Joyce (Merck Research Laboratories)
B2: IgG D5 (antibody, V domains shown)
VH: B1 VH
VL: B1 VL
notes: also called D5 monoclonal antibody; D5 IgG; source: provided by Joseph Joyce (Merck Research Laboratories); copies: 2 + 2

Experiments:
[1] = biological target: T1, 5-Helix (tag-less version) (HIV-1 group M subtype B, HXB2 (gp41 …)); assay: cell-based or functional assay
[2] = biological target: T1, 5-Helix (tag-less version); assay: ITC; settings: both partners purified
[3] = biological target: T1, 5-Helix (tag-less version); assay: ITC; settings: both partners purified; remark: listed apart in the source

| Binder | HIV-1 neutralization IC50, Env-pseudotyped virus, 89.6 Env [1] [nM] | HIV-1 neutralization IC50, Env-pseudotyped virus, HXB2 Env [1] [nM] | HIV-1 neutralization IC50, Env-pseudotyped virus, JR CSF Env [1] [nM] | HIV-1 neutralization IC50, Env-pseudotyped virus, SF162 Env [1] [nM] | Kd [2] [nM] | stoichiometry N [3] |
| --- | --- | --- | --- | --- | --- | --- |
| B1 | 890 | 300 | 640 | 1300 | ~10 |  |
| B2 | 2240 | 230 | 640 | 940 | < 20 | 2 5-Helix per D5 IgG |

Reference: PMC2978731 (PLoS Pathogens, 2010)
